Test results taken from PMC12041577 (Nature Communications, 2025).
Changes are numbered by the printed parent chain. Numbers in names are those of the source.

B1: ad2-100K truncation mutant Δ680–805 with a C terminal 2 × Strep tag (domain or fragment, human adenovirus type 2 (ad2), UniProt P24932 1-679, looked up)
chain: MESVEKEDSLTAPFEFATTASTDAANAPTTFPVEAPPLEEEEVIIEQDPGFVSEDDEDRSVPTEDKKQDQDDAEANEEQVGRGDQRHGDYLDVGDDVLLKHLQRQCAIICDALQERSDVPLAIADVSLAYERHLFSPRVPPKRQENGTCEPNPRLNFYPVFAVPEVLATYHIFFQNCKIPLSCRANRSRADKQLALRQGAVIPDIASLDEVPKIFEGLGRDEKRAANALQQENSENESHCGVLVELEGDNARLAVLKRSIEVTHFAYPALNLPPKVMSTVMSELIVRRARPLERDANLQEQTEEGLPAVGDEQLARWLETREPADLEERRKLMMAAVLVTVELECMQRFFADPEMQRKLEETLHYTFRQGYVRQACKISNVELCNLVSYLGILHENRLGQNVLHSTLKGEARRDYVRDCVYLFLCYTWQTAMGVWQQCLEERNLKELQKLLKQNLKDLWTAFNERSVAAHLADIIFPERLLKTLQQGLPDFTSQSMLQNFRNFILERSGILPATCCALPSDFVPIKYRECPPPLWGHCYLLQLANYLAYHSDIMEDVSGDGLLECHCRCNLCTPHRSLVCNSQLLSESQIIGTFELQGPSPDEKSAAPGLKLTPGLWTSAYLRKFVPEDYHAHEIRFYEDQSRPPNAELTACVITQGHILGQLQAINKARQEFLLRKGR
B2: ad2-100K truncation mutant Δ693–805 with a C terminal 2 × Strep tag (domain or fragment, human adenovirus type 2 (ad2), UniProt P24932 1-692, looked up)
chain: MESVEKEDSLTAPFEFATTASTDAANAPTTFPVEAPPLEEEEVIIEQDPGFVSEDDEDRSVPTEDKKQDQDDAEANEEQVGRGDQRHGDYLDVGDDVLLKHLQRQCAIICDALQERSDVPLAIADVSLAYERHLFSPRVPPKRQENGTCEPNPRLNFYPVFAVPEVLATYHIFFQNCKIPLSCRANRSRADKQLALRQGAVIPDIASLDEVPKIFEGLGRDEKRAANALQQENSENESHCGVLVELEGDNARLAVLKRSIEVTHFAYPALNLPPKVMSTVMSELIVRRARPLERDANLQEQTEEGLPAVGDEQLARWLETREPADLEERRKLMMAAVLVTVELECMQRFFADPEMQRKLEETLHYTFRQGYVRQACKISNVELCNLVSYLGILHENRLGQNVLHSTLKGEARRDYVRDCVYLFLCYTWQTAMGVWQQCLEERNLKELQKLLKQNLKDLWTAFNERSVAAHLADIIFPERLLKTLQQGLPDFTSQSMLQNFRNFILERSGILPATCCALPSDFVPIKYRECPPPLWGHCYLLQLANYLAYHSDIMEDVSGDGLLECHCRCNLCTPHRSLVCNSQLLSESQIIGTFELQGPSPDEKSAAPGLKLTPGLWTSAYLRKFVPEDYHAHEIRFYEDQSRPPNAELTACVITQGHILGQLQAINKARQEFLLRKGRGVYLDPQSGEELN
B3: ad2-100K fused with a C terminal 2 × Strep tag (natural protein, human adenovirus type 2 (ad2), UniProt P24932 1-805, looked up)
chain: MESVEKEDSLTAPFEFATTASTDAANAPTTFPVEAPPLEEEEVIIEQDPGFVSEDDEDRSVPTEDKKQDQDDAEANEEQVGRGDQRHGDYLDVGDDVLLKHLQRQCAIICDALQERSDVPLAIADVSLAYERHLFSPRVPPKRQENGTCEPNPRLNFYPVFAVPEVLATYHIFFQNCKIPLSCRANRSRADKQLALRQGAVIPDIASLDEVPKIFEGLGRDEKRAANALQQENSENESHCGVLVELEGDNARLAVLKRSIEVTHFAYPALNLPPKVMSTVMSELIVRRARPLERDANLQEQTEEGLPAVGDEQLARWLETREPADLEERRKLMMAAVLVTVELECMQRFFADPEMQRKLEETLHYTFRQGYVRQACKISNVELCNLVSYLGILHENRLGQNVLHSTLKGEARRDYVRDCVYLFLCYTWQTAMGVWQQCLEERNLKELQKLLKQNLKDLWTAFNERSVAAHLADIIFPERLLKTLQQGLPDFTSQSMLQNFRNFILERSGILPATCCALPSDFVPIKYRECPPPLWGHCYLLQLANYLAYHSDIMEDVSGDGLLECHCRCNLCTPHRSLVCNSQLLSESQIIGTFELQGPSPDEKSAAPGLKLTPGLWTSAYLRKFVPEDYHAHEIRFYEDQSRPPNAELTACVITQGHILGQLQAINKARQEFLLRKGRGVYLDPQSGEELNPIPPPPQPYQQPRALASQDGTQKEAAAAAAATHGRGGILGQSGRGGFGRGGGDDGRLGQPRRSFRGRRGVRRNTVTLGRIPLAGAPEIGNRSQHRYNLRSSGAAGTACSPTQP
modifications: intermolecular disulfide bonds C515-C516' and C516-C515' between the two protomers
B4: ad2-100K mutant C515S-C516S-strepII (natural protein, human adenovirus type 2 (ad2), UniProt P24932 1-805, looked up)
chain: B3 chain with C515S, C516S

Target: the molecule itself
Assay: GraFix

Protein | binding result | stoichiometry N
B1 | binds | –
B2 | binds | –
B3 | – | 2
B4 | binds | –
